Experimental findings from patent US20240270821A1, “GIP/GLP1/GCG TRI-RECEPTOR AGONISTS AND USES THEREOF” (priority 2023, published 2024) are described below.

Assay in all cases: cell-based or functional assay
One assay deals with hGLP-1R (Homo sapiens, UniProt P43220).
In assay [1] the target is T1, human GIP receptor (human) (UniProt P48546).
T1 sequence (looked up): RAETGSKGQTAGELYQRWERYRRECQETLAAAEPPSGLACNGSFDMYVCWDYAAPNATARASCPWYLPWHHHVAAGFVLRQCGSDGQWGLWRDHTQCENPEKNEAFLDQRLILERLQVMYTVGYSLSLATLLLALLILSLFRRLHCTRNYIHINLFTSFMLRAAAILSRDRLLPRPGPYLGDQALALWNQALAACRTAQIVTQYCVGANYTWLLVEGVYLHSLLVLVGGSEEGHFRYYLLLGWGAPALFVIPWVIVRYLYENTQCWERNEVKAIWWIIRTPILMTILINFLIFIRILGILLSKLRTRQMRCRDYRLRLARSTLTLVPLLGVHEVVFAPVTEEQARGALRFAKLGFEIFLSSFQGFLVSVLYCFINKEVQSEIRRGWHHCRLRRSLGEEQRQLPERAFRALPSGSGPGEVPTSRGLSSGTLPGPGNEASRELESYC

For assay [2], the target named is human GLP-1R (SNAP-GLP-1R expressed in HEK293 cells) (human) (UniProt P43220).
Chain of human GLP-1R (SNAP-GLP-1R expressed in HEK293 cells) (human) (P43220 24-463): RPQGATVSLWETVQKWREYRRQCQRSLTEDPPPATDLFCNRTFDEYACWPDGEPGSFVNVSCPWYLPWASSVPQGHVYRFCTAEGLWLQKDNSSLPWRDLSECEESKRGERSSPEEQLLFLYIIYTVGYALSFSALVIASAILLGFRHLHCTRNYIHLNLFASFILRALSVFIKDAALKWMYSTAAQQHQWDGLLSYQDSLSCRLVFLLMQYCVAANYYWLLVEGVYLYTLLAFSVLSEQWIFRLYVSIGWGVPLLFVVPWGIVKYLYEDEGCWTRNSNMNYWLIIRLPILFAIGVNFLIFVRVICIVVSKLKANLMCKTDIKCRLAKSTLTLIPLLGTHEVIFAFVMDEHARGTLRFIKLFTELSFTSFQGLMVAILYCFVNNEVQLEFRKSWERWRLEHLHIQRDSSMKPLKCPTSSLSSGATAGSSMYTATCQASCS
Assay [3] deals with human glucagon receptor (human) (UniProt P47871).
Chain of human glucagon receptor (human) (P47871 26-477): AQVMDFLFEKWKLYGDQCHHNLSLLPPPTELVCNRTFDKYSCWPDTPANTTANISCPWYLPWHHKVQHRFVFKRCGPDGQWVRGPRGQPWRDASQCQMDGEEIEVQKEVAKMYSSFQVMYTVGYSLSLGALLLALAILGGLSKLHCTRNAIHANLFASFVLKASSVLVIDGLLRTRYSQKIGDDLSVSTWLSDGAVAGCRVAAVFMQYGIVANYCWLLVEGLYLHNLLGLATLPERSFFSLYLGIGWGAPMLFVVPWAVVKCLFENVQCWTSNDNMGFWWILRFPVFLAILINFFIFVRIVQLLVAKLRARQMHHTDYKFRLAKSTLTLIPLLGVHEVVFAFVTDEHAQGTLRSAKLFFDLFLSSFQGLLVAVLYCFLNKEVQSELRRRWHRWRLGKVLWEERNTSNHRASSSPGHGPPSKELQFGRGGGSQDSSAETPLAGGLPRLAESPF

Chain of hGLP-1R (P43220 24-463): as the sequence (P43220 24-463) above

B1: Example 230 (peptide)
chain: YXQGTFTSDFSRXLDKKAQXAFIEYLIEXGESSGAPPPSGS
modifications: non-natural residues, AEEA-γGlu-C18 diacid acyl on K, C-terminal amide; synthetic construct; SITE 2: note = 2-Aminoisobutyric Acid; SITE 13: note = alpha-methyl-leucine; SITE 17: note = Lysine is chemically modified through conjugation of the epsilon-amino group of the Lysine side chain with (2-[2-(2-Amino-ethoxy)-ethoxy]-acetyl)-(gamma-Glu)-CO-(CH2) 16-CO2H; SITE 20: n
For the molecule B1, the Relative cAMP EC50 with hGLP-1R was determined as 0.937 nM; in assay [1], 0.0909 nM; in assay [3] it was 1.61 nM. The molecule also displayed a GLP1R Internalization EC50 in assay [2] of 34.4 nM. This molecule also showed an Internalization % TOP in assay [2] of 31.2%.

B2: Example 231 (peptide)
chain: YXQGTFTSDFSRXLDKKAQXAFIEYLIEXGESSGAPPPSGE
modifications: non-natural residues; lipidated Lys; C-terminal amide; synthetic construct; SITE 2: note = 2-Aminoisobutyric Acid; SITE 13: note = alpha-methyl-leucine; SITE 17: note = Lysine is chemically modified through conjugation of the epsilon-amino group of the Lysine side chain with (2-[2-(2-Amino-ethoxy)-ethoxy]-acetyl)-(gamma-Glu)-CO-(CH2) 16-CO2H; SITE 20: n
Take B2: in the assay with hGLP-1R, the Relative cAMP EC50 is 1.3 nM and the cAMP Rel EC50, nM (1% HSA) was 223 nM. Besides, in assay [1], the Relative cAMP EC50 came to 0.119 nM and the cAMP Rel EC50, nM (1% HSA) came out at 27.4 nM. Also, in assay [2], the GLP1R Internalization EC50 is 36.1 nM and the Internalization % TOP turned out to be 27.7%. In assay [3], this molecule registered a Relative cAMP EC50 of 2.12 nM and a cAMP Rel EC50, nM (1% HSA) of 443 nM.

B3: Example 233 (peptide)
chain: YXQGTFTSDFSQXLDKKAQXAFIEYLIEXGESSGAPPPSGE
modifications: non-natural residues; AEEA-γGlu-C18 diacid on Lys; C-terminal amide; synthetic construct; SITE 2: note = 2-Aminoisobutyric Acid; SITE 13: note = alpha-methyl-leucine; SITE 17: note = Lysine is chemically modified through conjugation of the epsilon-amino group of the Lysine side chain with (2-[2-(2-Amino-ethoxy)-ethoxy]-acetyl)-(gamma-Glu)-CO-(CH2) 16-CO2H; SITE 20: n
In the case of B3, in the assay with hGLP-1R, the Relative cAMP EC50 was found to be 0.874 nM and the cAMP Rel EC50, nM (1% HSA) came to 223 nM. In addition, in assay [1], the Relative cAMP EC50 is 0.0884 nM and the cAMP Rel EC50, nM (1% HSA) came to 28.1 nM. Further, in assay [2], the GLP1R Internalization EC50 was found to be 24.8 nM and the Internalization % TOP stood at 41.8%. Also, in assay [3], the Relative cAMP EC50 stood at 2.25 nM and the cAMP Rel EC50, nM (1% HSA) was determined as 453 nM.

B4: Example 254 (peptide)
chain: YXQGTFTSDFSXXLDKKAQXAFIEYLLEAGPSSGXPPPSGS
modifications: synthetic construct; SITE 2: note = 2-Aminoisobutyric Acid; SITE 12: note = L-ornithine; SITE 13: note = alpha-methyl-leucine; SITE 17: note = Lysine is chemically modified through conjugation of the epsilon-amino group of the Lysine side chain with (2-[2-(2-Amino-ethoxy)-ethoxy]-acetyl)2-(gamma-Glu)
Turning to B4, the figures for the Relative cAMP EC50 (with hGLP-1R; in assay [1]; in assay [3]) were 3.08 nM, 0.121 nM and 4.9 nM, respectively. The results for the cAMP Rel EC50 (in the presence of 1% HSA) (in the assay with hGLP-1R; in assay [1]; in assay [3]) were 265 nM, 21.4 nM and 767 nM, respectively. In assay [2], this molecule yielded a GLP1R Internalization EC50 of 31.9 nM. In addition, in assay [2], the Internalization % TOP was found to be 47.8%.

B5: Example 278 (peptide)
chain: YXQGTFTSDFSXXLDKKAQXAFIEYLLEXGPSSGAPPPSGT
modifications: synthetic construct; SITE 2: note = 2-Aminoisobutyric Acid; SITE 12: note = L-ornithine; SITE 13: note = alpha-methyl-leucine; SITE 17: note = Lysine is chemically modified through conjugation of the epsilon-amino group of the Lysine side chain with (2-[2-(2-Amino-ethoxy)-ethoxy]-acetyl)-(gamma-Glu)
For B5, the Relative cAMP EC50 with hGLP-1R worked out at 4.11 nM; in assay [1] it was 0.0963 nM; in assay [3] it was 4.45 nM. Moreover, the cAMP Rel EC50 (in the presence of 1% HSA) came to 241 nM in the assay with hGLP-1R, 7.69 nM in assay [1] and 274 nM in assay [3]. Besides, in assay [2], the GLP1R Internalization EC50 amounted to 251 nM. The molecule also displayed an Internalization % TOP in assay [2] of 68.6%.

B6: Example 279 (peptide)
chain: YXQGTFTSDFSXXLDKKAQXAFIEYLLEXGPSSGAPPPSGX
modifications: synthetic construct; SITE 2: note = 2-Aminoisobutyric Acid; SITE 12: note = L-ornithine; SITE 13: note = alpha-methyl-leucine; SITE 17: note = Lysine is chemically modified through conjugation of the epsilon-amino group of the Lysine side chain with (2-[2-(2-Amino-ethoxy)-ethoxy]-acetyl)-(gamma-Glu)
Consider B6, for which, in the assay with hGLP-1R, the Relative cAMP EC50 is 5.77 nM and the cAMP Rel EC50 (in the presence of 1% HSA) was 367 nM. In addition, in assay [1], the Relative cAMP EC50 was 0.105 nM and the cAMP Rel EC50 (in the presence of 1% HSA) was 11.6 nM. Further, in assay [2], the GLP1R Internalization EC50 was found to be 115 nM and the Internalization % TOP was 37.5%. For the same molecule, in assay [3], the Relative cAMP EC50 is 5.06 nM and the cAMP Rel EC50 (in the presence of 1% HSA) was found to be 427 nM.

B7: Example 232 (peptide)
chain: YXQGTFTSDFSQXLDKKAQXAFIEYLIEXGESSGAPPPSGS
modifications: non-natural residues (Aib, αMeL, αMe4Pal); lipidated K; C-terminal amide; synthetic construct; SITE 2: note = 2-Aminoisobutyric Acid; SITE 13: note = alpha-methyl-leucine; SITE 17: note = Lysine is chemically modified through conjugation of the epsilon-amino group of the Lysine side chain with (2-[2-(2-Amino-ethoxy)-ethoxy]-acetyl)-(gamma-Glu)-CO-(CH2) 16-CO2H; SITE 20: n
Take B7: in the assay with hGLP-1R, the Relative cAMP EC50 was 0.819 nM and the cAMP Rel EC50, nM (1% HSA) stood at 226 nM. For the same molecule, in assay [1], the Relative cAMP EC50 was determined as 0.102 nM and the cAMP Rel EC50, nM (1% HSA) amounted to 24.6 nM. Moreover, in assay [2], the GLP1R Internalization EC50 was 44.7 nM and the Internalization % TOP is 45.5%. Moreover, in assay [3], the Relative cAMP EC50 amounted to 2.42 nM and the cAMP Rel EC50, nM (1% HSA) is 482 nM.

B8: Example 282 (peptide)
chain: YXQGTFTSDXSKXLDKKAQXAFIEYLIEXGESSGEPPPSGS
modifications: synthetic construct; SITE 2: note = 2-Aminoisobutyric Acid; SITE 10: note = 3-(4-Pyridyl)-L-alanine; SITE 13: note = alpha-methyl-leucine; SITE 17: note = Lysine is chemically modified through conjugation of the epsilon-amino group of the Lysine side chain with (2-[2-(2-Amino-ethoxy)-ethoxy]-acetyl)
In the case of B8, the Relative cAMP EC50 with hGLP-1R is 1.09 nM; in assay [1], 0.163 nM; in assay [3] it was 6.98 nM. Moreover, the cAMP Rel EC50 (in the presence of 1% HSA) worked out at 217 nM with hGLP-1R, 22.1 nM in assay [1] and 1830 nM in assay [3]. The molecule also yielded a GLP1R Internalization EC50 in assay [2] of 28.7 nM. Also, the Internalization % TOP in assay [2] amounted to 71.9%.

B9: Example 253 (peptide)
chain: YXQGTFTSDFSXXLDKKAQXAFIEYLLEAGPSSGHPPPSGS
modifications: synthetic construct; SITE 2: note = 2-Aminoisobutyric Acid; SITE 12: note = L-ornithine; SITE 13: note = alpha-methyl-leucine; SITE 17: note = Lysine is chemically modified through conjugation of the epsilon-amino group of the Lysine side chain with (2-[2-(2-Amino-ethoxy)-ethoxy]-acetyl)2-(gamma-Glu)
B9: in the assay with hGLP-1R, the Relative cAMP EC50 was found to be 2.2 nM and the cAMP Rel EC50 (in the presence of 1% HSA) was 355 nM. Further, in assay [1], the Relative cAMP EC50 amounted to 0.115 nM and the cAMP Rel EC50 (in the presence of 1% HSA) was 26.6 nM. In assay [2], this molecule yielded a GLP1R Internalization EC50 of 81.6 nM and an Internalization % TOP of 55.2%. Moreover, in assay [3], the Relative cAMP EC50 worked out at 6.62 nM and the cAMP Rel EC50 (in the presence of 1% HSA) amounted to 963 nM.
